B1: High osmolarity signaling protein SHO1 (Saccharomyces cerevisiae), P40073 (parent)
chain: MSISSKIRPTPRKPSRMATDHSFKMKKFYADPFAISSISLAIVSWVIAIGGSISSASTNESFPRFTWWGIVYQFLIICSLMLFYCFDLVDHYRIFITTSIAVAFVYNTNSATNLVYADGPKKAAASAGVILLSIINLIWILYYGGDNASPTNRWIDSFSIKGIRPSPLENSLHRARRRGNRNTTPYQNNVYNDAIRDSGYATQFDGYPQQQPSHTNYVSSTALAGFENTQPNTSEAVNLHLNTLQQRINSASNAKETNDNSNNQTNTNIGNTFDTDFSNGNTETTMGDTLGLYSDIGDDNFIYKAKALYPYDADDDDAYEISFEQNEILQVSDIEGRWWKARRANGETGIIPSNYVQLIDGPEEMHR
partner: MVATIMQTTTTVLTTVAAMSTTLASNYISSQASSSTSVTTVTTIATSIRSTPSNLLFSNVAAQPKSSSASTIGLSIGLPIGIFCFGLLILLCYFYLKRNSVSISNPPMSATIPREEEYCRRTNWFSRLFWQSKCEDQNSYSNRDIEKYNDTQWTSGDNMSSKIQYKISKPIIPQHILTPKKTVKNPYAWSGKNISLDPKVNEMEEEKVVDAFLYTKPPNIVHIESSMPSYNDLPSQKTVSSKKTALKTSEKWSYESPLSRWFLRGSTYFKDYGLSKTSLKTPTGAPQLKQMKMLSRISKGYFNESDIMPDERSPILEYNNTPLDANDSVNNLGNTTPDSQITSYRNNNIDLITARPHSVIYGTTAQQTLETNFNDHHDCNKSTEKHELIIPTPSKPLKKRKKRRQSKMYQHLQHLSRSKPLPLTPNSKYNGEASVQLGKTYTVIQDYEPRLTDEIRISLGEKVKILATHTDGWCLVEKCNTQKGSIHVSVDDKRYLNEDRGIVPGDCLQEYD

The experiment covers variants of B1. The following applies: with fus1_yeast FUS1, P11710.
In the case of P352A, the “effect of a mutation on the interaction” value is on record as “decreasing interaction”.
